Patent US20230288411A1, “POLYPEPTIDE, MULTIMER, SOLID PHASE, MEASUREMENT METHOD FOR TEST SUBSTANCE, AND REAGENT KIT” (SYSMEX CORPORATION, priority 2020, published 2023)

Key:
[1] = biological target: TSH (thyroid stimulating hormone) in HISCL (trademark) TSH Calibrators C0 to C5 (Sysmex Corporation) (UniProt P01215); assay: chemiluminescent sandwich ELISA on D-tamavidin 2-immobilized plate; TSH 2 µIU/mL
[2] = biological target: TSH (thyroid stimulating hormone) in HISCL (trademark) TSH Calibrators C0 to C5 (Sysmex Corporation) (UniProt P01215); assay: chemiluminescent sandwich ELISA on D-streptavidin-immobilized plate; TSH 2 µIU/mL
[3] = biological target: TSH (thyroid stimulating hormone) in HISCL (trademark) TSH Calibrators C0 to C5 (Sysmex Corporation) (UniProt P01215); assay: chemiluminescent sandwich ELISA on D-tamavidin 2-immobilized plate; TSH 10 µIU/mL
[4] = biological target: TSH (thyroid stimulating hormone) in HISCL (trademark) TSH Calibrators C0 to C5 (Sysmex Corporation) (UniProt P01215); assay: chemiluminescent sandwich ELISA on D-tamavidin 2-immobilized plate; TSH 50 µIU/mL
[5] = biological target: TSH (thyroid stimulating hormone) in HISCL (trademark) TSH Calibrators C0 to C5 (Sysmex Corporation) (UniProt P01215); assay: chemiluminescent sandwich ELISA on D-streptavidin-immobilized plate; TSH 10 µIU/mL
[6] = biological target: TSH (thyroid stimulating hormone) in HISCL (trademark) TSH Calibrators C0 to C5 (Sysmex Corporation) (UniProt P01215); assay: chemiluminescent sandwich ELISA on D-streptavidin-immobilized plate; TSH 50 µIU/mL
[7] = biological target: TSH (thyroid stimulating hormone) in HISCL (trademark) TSH Calibrators C0 to C5 (Sysmex Corporation) (UniProt P01215); assay: chemiluminescent sandwich ELISA on D-tamavidin 2-immobilized plate; TSH 120 µIU/mL
[8] = biological target: TSH (thyroid stimulating hormone) in HISCL (trademark) TSH Calibrators C0 to C5 (Sysmex Corporation) (UniProt P01215); assay: chemiluminescent sandwich ELISA on D-tamavidin 2-immobilized plate; TSH 200 µIU/mL
[9] = biological target: TSH (thyroid stimulating hormone) in HISCL (trademark) TSH Calibrators C0 to C5 (Sysmex Corporation) (UniProt P01215); assay: chemiluminescent sandwich ELISA on D-streptavidin-immobilized plate; TSH 120 µIU/mL
[10] = biological target: TSH (thyroid stimulating hormone) in HISCL (trademark) TSH Calibrators C0 to C5 (Sysmex Corporation) (UniProt P01215); assay: chemiluminescent sandwich ELISA on D-streptavidin-immobilized plate; TSH 200 µIU/mL
[11] = biological target: TSH (thyroid stimulating hormone) in HISCL (trademark) TSH Calibrators C0 to C5 (Sysmex Corporation) (UniProt P01215); assay: chemiluminescent sandwich ELISA on D-tamavidin 2-immobilized plate; TSH 0 µIU/mL (blank)
[12] = biological target: TSH (thyroid stimulating hormone) in HISCL (trademark) TSH Calibrators C0 to C5 (Sysmex Corporation) (UniProt P01215); assay: chemiluminescent sandwich ELISA on D-streptavidin-immobilized plate; TSH 0 µIU/mL (blank)
[13] = biological target: TSH (thyroid stimulating hormone) in HISCL (trademark) TSH Calibrators C0 to C5 (Sysmex Corporation) (UniProt P01215); assay: chemiluminescent sandwich ELISA on D-tamavidin 2-immobilized plate; TSH 50 µIU/mL, five samples
[14] = biological target: TSH (thyroid stimulating hormone) in HISCL (trademark) TSH Calibrators C0 to C5 (Sysmex Corporation) (UniProt P01215); assay: chemiluminescent sandwich ELISA on D-streptavidin-immobilized plate; TSH 50 µIU/mL, five samples

Sequence of TSH (thyroid stimulating hormone) in HISCL (trademark) TSH Calibrators C0 to C5 (Sysmex Corporation) (P01215 25-116, chain 1 of 2): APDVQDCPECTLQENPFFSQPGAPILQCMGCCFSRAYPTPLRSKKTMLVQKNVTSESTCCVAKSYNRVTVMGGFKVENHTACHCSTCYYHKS
Sequence of TSH (thyroid stimulating hormone) in HISCL (trademark) TSH Calibrators C0 to C5 (Sysmex Corporation) (P01222 21-132, chain 2 of 2, further chain): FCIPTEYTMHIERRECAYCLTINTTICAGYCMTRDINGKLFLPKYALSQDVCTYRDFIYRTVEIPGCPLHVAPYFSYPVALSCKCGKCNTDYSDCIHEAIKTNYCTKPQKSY

Work on “L-biotin-labeled TSH antibody (thyroid stimulating hormone antibody T2-194, KITAYAMA LABES CO., LTD., labeled with L-biotin-AC5-OSu)” yielded a Count value [1] of 35300 count, a Count value [2] of 17300 count and a Count value [3] of 150000 count. For the same substance, the Count value [4] was 700000 count, the Count value [5] was 80400 count and the Count value [6] was 442000 count. It also gave a Count value [7] of 1.32e+06 count, a Count value [8] of 1.58e+06 count and a Count value [9] of 967000 count. It also gave a Count value [10] of 1.26e+06 count, a Count value [11] of 363 count and a Count value [12] of 1010 count. It also gave a Count value (average of five samples) [13] of 668000 count and a Count value (average of five samples) [14] of 410000 count.
